Data reported in the supplement of paper PMC10567573.

B1: DUSP5 (parent)
chain: YSEYPECCVDVKPISQEKIESERA

Variants of: B1
Test: protein stability index of a GFP-peptide fusion (GPS, HEK-293T) (PSI 1-6); higher = more stable
Conditions: c terminus: a fixed tail appended
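Also: lentivirally expressed fusions sorted by FACS into six bins by GFP to DsRed ratio, PSI derived from sequencing read proportions per bin multiplied by bin number.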

In order of rising protein stability index:
1. YSEYPECWVDVKPISQEKIESERA  1.32
2. YSEYPECCVWVKPISQEKIESERA  1.74
3. YSEYPECYVDVKPISQEKIESERA  2.15
4. YSEYPECCVNVKPISQEKIESERA  2.18
5. YSEYPECCVFVKPISQEKIESERA  2.47
6. YSEYPECCVIVKPISQEKIESERA  2.6
7. YSEYPECCVCVKPISQEKIESERA  2.69
8. YSEYPECCVRVKPISQEKIESERA  2.84
9. YSEYPECCVTVKPISQEKIESERA  2.85
10. YSEYPECCVMVKPISQEKIESERA  2.91
11. YSEYPECCRDVKPISQEKIESERA  2.94
12. YSEYPECCVLVKPISQEKIESERA  2.98
13. YSEYPECCVDVSPISQEKIESERA  3.02
14. YSEYPECCVYVKPISQEKIESERA  3.04
15. YSEYPECCVHVKPISQEKIESERA  3.15
16. YSEYPECCVDVKLISQEKIESERA  3.22
17. YSEYPECCVDVWPISQEKIESERA  3.26
18. YSEYPECCVDCKPISQEKIESERA  3.38
19. YSEYPECCWDVKPISQEKIESERA  3.39
20. YSEYPECCVDYKPISQEKIESERA  3.4
21. YSEYPECCVDRKPISQEKIESERA  3.45
22. YSEYPECCVDVKRISQEKIESERA  3.48
23. YSEYPECCVDVKMISQEKIESERA  3.5
24. YSEYPECCVDFKPISQEKIESERA  3.53
25. YSEYPECCVAVKPISQEKIESERA  3.56
26. YSEYPECCVDPKPISQEKIESERA  3.61
27. YSEYPECCVDVKIISQEKIESERA  3.69
28. YSEYPECCVKVKPISQEKIESERA  3.71
29. YSEYPECCVDVIPISQEKIESERA  3.72
30. YSEYPECCFDVKPISQEKIESERA  3.76
31. YSEYPECIVDVKPISQEKIESERA  3.77
32. YSEYPECCMDVKPISQEKIESERA  3.77
33. YSEYPECCVDVFPISQEKIESERA  3.83
34. YSEYPECCVDLKPISQEKIESERA  3.84
35. YSEYPECCVDVKFISQEKIESERA  3.85
36. YSEYPECCVSVKPISQEKIESERA  3.88
37. YSEYPECCVDTKPISQEKIESERA  3.95
38. YSEYPECCVPVKPISQEKIESERA  3.96
39. YSEYPECCVDVCPISQEKIESERA  3.96
40. YSEYPECCVDVKNISQEKIESERA  3.96
41. YSEYPECCVDVKHISQEKIESERA  4.03
42. YSEYPECCVDVKGISQEKIESERA  4.03
43. YSEYPECCYDVKPISQEKIESERA  4.04
44. YSEYPECLVDVKPISQEKIESERA  4.07
45. YSEYPECCVDVNPISQEKIESERA  4.07
46. YSEYPECCVDVTPISQEKIESERA  4.07
47. YSEYPECCVDMKPISQEKIESERA  4.09
48. YSEYPECCVDWKPISQEKIESERA  4.09
49. YSEYPECCCDVKPISQEKIESERA  4.12
50. YSEYPECCDDVKPISQEKIESERA  4.12
51. YSEYPECCVDVKKISQEKIESERA  4.12
52. YSEYPECCVDVVPISQEKIESERA  4.14
53. YSEYPECCVDVKQISQEKIESERA  4.14
54. YSEYPECCVDKKPISQEKIESERA  4.17
55. YSEYPECCVDVMPISQEKIESERA  4.18
56. YSEYPECCVDVKEISQEKIESERA  4.19
57. YSEYPECCVDAKPISQEKIESERA  4.23
58. YSEYPECCVDSKPISQEKIESERA  4.24
59. YSEYPECCPDVKPISQEKIESERA  4.24
60. YSEYPECCVDEKPISQEKIESERA  4.25
61. YSEYPECCVDVRPISQEKIESERA  4.25
62. YSEYPECCADVKPISQEKIESERA  4.26
63. YSEYPECCVDVPPISQEKIESERA  4.32
64. YSEYPECVVDVKPISQEKIESERA  4.35
65. YSEYPECCIDVKPISQEKIESERA  4.35
66. YSEYPECCHDVKPISQEKIESERA  4.39
67. YSEYPECCGDVKPISQEKIESERA  4.4
68. YSEYPECCTDVKPISQEKIESERA  4.4
69. YSEYPECCVDVDPISQEKIESERA  4.46
70. YSEYPECCVDVAPISQEKIESERA  4.47
71. YSEYPECCQDVKPISQEKIESERA  4.47
72. YSEYPECCVDVKDISQEKIESERA  4.47
73. YSEYPECCVDNKPISQEKIESERA  4.51
74. YSEYPECCKDVKPISQEKIESERA  4.53
75. YSEYPECCVDVKAISQEKIESERA  4.56
76. YSEYPECQVDVKPISQEKIESERA  4.58
77. YSEYPECMVDVKPISQEKIESERA  4.59
78. YSEYPECSVDVKPISQEKIESERA  4.66
79. YSEYPECCVEVKPISQEKIESERA  4.66
80. YSEYPECCLDVKPISQEKIESERA  4.7
81. YSEYPECCVDVQPISQEKIESERA  4.77
82. YSEYPECKVDVKPISQEKIESERA  4.87
83. YSEYPECCVDVKCISQEKIESERA  4.88
84. YSEYPECCSDVKPISQEKIESERA  4.93
85. YSEYPECCVDVHPISQEKIESERA  4.95
86. YSEYPECCVDQKPISQEKIESERA  5
87. YSEYPECHVDVKPISQEKIESERA  5.2
88. YSEYPECRVDVKPISQEKIESERA  5.24
89. YSEYPECTVDVKPISQEKIESERA  5.41
90. YSEYPECCVDDKPISQEKIESERA  5.42
91. YSEYPECCNDVKPISQEKIESERA  5.56
92. YSEYPECCEDVKPISQEKIESERA  5.56
93. YSEYPECPVDVKPISQEKIESERA  5.6
94. YSEYPECNVDVKPISQEKIESERA  5.64
